Experimental findings from PMC5802752 (Nature Communications, 2018) are described below.

The experiment deals with T1, factor H-binding protein (fHbp) variant 1.1, recombinant (Neisseria meningitidis serogroup B MC58 …, UniProt Q9JXV4).
T1 construct: not shown: His6, C-terminal, kept
As to the kind of experiment: crystal structure. To be noted: both partners purified.

B1: human Fab 1A12 (Fab, V domains shown)
VH: EVQLVQSGAELKKPGESLKISCKASGYTFTNYWVVWVRQMPGEGLEWMGSIHPRDSDARYSLSFEGRVTFSVDKSTTTAYLQWSSLKVSDSAIYYCARLSQVSGWSPWVGPWGQGTLVTVSS
VL: DIVMTQSPSSLSASVGDRVTITCRASQSISVSLNWYQQKPGKAPKVLIYAASRLQSGIPSRFSGSGSGSHFTLTISSLQPEDFATYYCQETYSDLMYTFGQGTKVEIK
Take B1: the binding result is listed as “binds”.
